# In US20240207421A1, “NERVE TARGETING PEPTIDES AND METHODS OF USE” (ALUME BIOSCIENCES, INC., priority 2020, published 2024):
# How the values were obtained:
# Human Myelin PLP (human) = Human Myelin PLP (human) (UniProt P60201); assay: phage display, NGS count
# [1] = molecular target: Human Myelin Basic Protein (Homo sapiens, UniProt P02686); assay: phage display, NGS count
# Chain of Human Myelin Basic Protein (P02686 135-304 limits assumed): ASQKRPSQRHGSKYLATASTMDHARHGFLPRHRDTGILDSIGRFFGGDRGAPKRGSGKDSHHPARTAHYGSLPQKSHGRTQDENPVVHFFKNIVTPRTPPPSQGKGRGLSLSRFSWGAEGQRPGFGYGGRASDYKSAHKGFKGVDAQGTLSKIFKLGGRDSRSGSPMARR
# Chain of Human Myelin PLP (human) (P60201 2-277 limits assumed): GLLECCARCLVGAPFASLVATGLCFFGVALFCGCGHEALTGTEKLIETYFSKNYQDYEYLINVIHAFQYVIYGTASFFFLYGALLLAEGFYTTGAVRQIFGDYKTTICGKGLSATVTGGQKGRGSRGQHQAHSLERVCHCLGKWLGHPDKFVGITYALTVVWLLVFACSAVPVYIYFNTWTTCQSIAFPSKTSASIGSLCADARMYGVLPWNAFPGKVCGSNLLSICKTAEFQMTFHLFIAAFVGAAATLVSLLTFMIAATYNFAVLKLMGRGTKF
Substance,Count (Human Myelin PLP (human)),Count [1]
LPVKNLL (peptide),26,
AHQSSVT (peptide),42,
SLNRGGA (peptide),28,
TKITPHR (peptide),29,
ALFQERK (peptide),27,
FSTPTNV (peptide),29,
SVEKYSK (peptide),33,
VTPNKAR (peptide),26,
NIPSSIL (peptide),33,
EPSSFTF (peptide),31,
DRHEGHR (peptide),26,
KPSASIY (peptide),26,
NSSPHQI (peptide),,7
TPGRATL (peptide),,6
SVGLPTK (peptide),,6
LITHPQL (peptide),,6
NFAQHMQ (peptide),,9
YLPPPLP (peptide),,7
AQFLTIY (peptide),,6
TPVLWLP (peptide),,6
TPVRLNT (peptide),,6
LPPQISR (peptide),,8
ALYNQMT (peptide),,6
YVNRVKQ (peptide),,6

Substance,Count (Human Myelin PLP (human)),Count [1]
SSMRYNS (peptide),,6
MPSLKHQ (peptide),,8
NLKLWTR (peptide),,7
TPLYLSS (peptide),,7
FDLLARK (peptide),,6
HMAGVNQ (peptide),,7
AAGQRSF (peptide),,7
VIRTAAM (peptide),,6
YSSRLND (peptide),,6
HRTHLHQ (peptide),,6
SSFYVAY (peptide),,6
SIQTSAM (peptide),,6
KGQPLFR (peptide),,7
HLLKTHS (peptide),,7
SNAERWR (peptide),,9
AGSLLSL (peptide),,6
TQMTMDS (peptide),,10
NGVSSSL (peptide),,6
QQAHLQS (peptide),,8
KNSIAPR (peptide),,8
LTKSLNH (peptide),,7
HPWLGNR (peptide),,9
SPPRFIP (peptide),,8

# The next lines start with the values.
Count (Human Myelin PLP (human)),Count [1],Substance
27,,TMPIKAM (peptide)
29,,SVMWMTP (peptide)
26,,SAQSRSF (peptide)
27,,LHQTYRP (peptide)
31,,IIPPTSV (peptide)
29,,GWSTAIR (peptide)
,6,YPYVPIY (peptide)
,6,SPKPDIP (peptide)
,6,LELHQNV (peptide)
,6,TIRVAHT (peptide)
,6,RVIPSTT (peptide)
,6,RGHPSQL (peptide)
,6,SRHLPPL (peptide)
,6,TGSVSKQ (peptide)
,8,QNSYLSN (peptide)
,6,GPRVTPH (peptide)
,6,WTYHPTT (peptide)

Count (Human Myelin PLP (human)),Count [1],Substance
,7,DVVKDVI (peptide)
,7,MPLLELP (peptide)
,9,SRPTRVP (peptide)
,6,KVHHLAR (peptide)
,6,SLWQTLR (peptide)
,6,DSQEKSV (peptide)
,6,KMSLAPP (peptide)
,7,WPDLRIL (peptide)
,8,TPQVMLK (peptide)
,8,IILPSAQ (peptide)
,6,VRGTPNH (peptide)
,6,IPYSQMP (peptide)
,9,SVEYGQL (peptide)
,7,SGNLKKA (peptide)
,8,YATATPS (peptide)
,6,VGTFWTR (peptide)
,10,MDLSLKP (peptide)
